Biological target: PD17(p)PS413 (24AWF)
Experiment: peptide-coated ELISA (plate coated with 1 µg/ml peptide 24AWF, anti-human IgG-HRP, ABTS, OD405)

B1: V5-AFM-hIgG4-S228P (antibody, V domains shown)
VH: EVQLVESGGGLVQPGGSLRLSCAASGFTFSSFALNWVRQAPGKGLEWVGHIRSKTNNYVTFYAASVKGRFTVSRDDSQNTAYLQMNSLKTEDTATYYCVRRGPRDSWFGYWGQGTLVTVSS
VL: DIVMTQSPLSLPVTLGEPASISCRSSQKIVHRNANTYLEWYLQKPGQSPQLLIYTVSNRFSGVPDRFSGSGSGTDFTLKISRVEAEDLGVYYCFQGSYLPLTFGGGTKVEIKR
Work on B1 yielded an EC50 (read off the curve) of 0.04 µg/mL.
